Assay results published in article PMC12406685, “Thiazole substitution of a labile amide bond—a new option toward antiplasmodial pantothenamide-mimics” (Antimicrobial Agents and Chemotherapy, 2025).

Experiments:
Conditions in all cases: other: compound as substrate of HsPanK3; mean ± SEM; 2c and 2e fitted with substrate inhibition equation 1
[1] = substrate: CC(C)(CO)[C@@H](O)C(=O)NCc1cnc(-c2ccccc2)s1; assay: HsPanK kinetic assay (pyruvate kinase/lactic dehydrogenase coupled, NADH at 340 nm); type: biochemical, human
Procedure: (§1) The gene encoding the catalytic core domain of human PanK3 (amino acid residues 12–368) was synthesized and cloned into the pET28a(+) expression vector using the NdeI and BamHI restriction sites to produce an N-terminal His6-tagged protein (Bio Basic Inc.). The plasmid was transformed into E. coli BL21(DE3) cells, which were cultured in Terrific Broth (TB) medium containing 50 µg/mL kanamycin at 37°C. When the culture reached an optical density at 600 nm (OD600) of 0.6, protein expression was induced by adding 1.0 mM isopropyl β-D-thiogalactoside (IPTG), followed by incubation at 18°C for 17–18 h. The cells were then harvested and resuspended in lysis buffer (20 mM Tris-HCl, pH 7.5, 500 mM NaCl, 5 mM imidazole, 5% [vol/vol] glycerol) supplemented with 1 mM PMSF (phenylmethylsulfonyl fluoride) and lysozyme (5 mg/g of the cell pellet). The suspension was then sonicated on ice, and the resulting lysate was centrifuged twice at 54,000 × g for 30 min at 4°C.
(§2) The clarified supernatant was incubated with Ni-NTA resin (Cytiva) pre-equilibrated with lysis buffer containing 5 mM imidazole at 4°C. After binding, the resin was washed with lysis buffer containing 30 mM imidazole, then eluted with lysis buffer containing 250 mM imidazole. The eluted HsPanK3 protein was dialyzed against storage buffer (20 mM Tris-HCl, pH 7.5, 200 mM NaCl, 5% [vol/vol] glycerol) and concentrated. The purified protein was stored at −80°C. Protein purity was assessed using SDS-PAGE and deemed >50% (Fig. S4).
(§3) The enzyme assay was adapted from a previously described method ([103]), which links the production of ADP to the consumption of NADH through the enzymatic activities of pyruvate kinase and lactic dehydrogenase. Reactions were conducted in 96-well microtiter plates, and the decrease in NADH concentration was measured at 340 nm at 30 s intervals after incubation at 30°C. Each reaction mixture (200 µL) contained the desired compound (substrate) at variable concentrations (0–2,000 µM), ATP (1.5 mM), NADH (0.3 mM), phospho(enol)pyruvate (2.0 mM), MgCl2 (10 mM), KCl (20 mM), a commercial pyruvate kinase/lactic dehydrogenase mixture (12 units, Sigma-Aldrich), and pantothenate kinase (0.48 µM) in 50 mM Tris–HCl buffer (pH 7.6). The reaction was initiated with the addition of ATP. The kinetic parameters were determined by fitting the rate data into the Michaelis–Menten equation using GraphPad Prism 8.0 with nonlinear regressions. Data were collected from three independent experiments, each performed in triplicate to verify the trends and optimize the selected concentrations. The kinetic parameters were calculated from the most complete triplicate set of data, and errors represent SEM.

[2] = substrate: CC(C)(CO)[C@@H](O)C(=O)NCc1csc(-c2ccccc2)n1; assay: as above; type: biochemical, human
Procedure: as §1, §2, §3

[3] = substrate: CC(C)(CO)[C@@H](O)C(=O)NCc1csc(Cc2ccccc2)n1; assay: as above; type: biochemical, human
Procedure: as §1, §2, §3

[4] = substrate: CC(C)(CO)[C@@H](O)C(=O)NCc1nc(CCc2ccccc2)cs1; assay: as above; type: biochemical, human
Procedure: as §1, §2, §3

[5] = substrate: CCCCCc1csc(CNC(=O)[C@H](O)C(C)(C)CO)n1; assay: as above; type: biochemical, human
Procedure: as §1, §2, §3

[6] = substrate: CCCCc1csc(CNC(=O)[C@H](O)C(C)(C)CO)n1; assay: as above; type: biochemical, human
Procedure: as §1, §2, §3

[7] = substrate: CC(C)(CO)[C@@H](O)C(=O)NCCC(=O)O; assay: purified protein, by the assay type

B1: HsPanK3 (Homo sapiens) (protein)
chain: PWFGMDIGGTLVKLSYFEPIDITAEEEQEEVESLKSIRKYLTSNVAYGSTGIRDVHLELKDLTLFGRRGNLHFIRFPTQDLPTFIQMGRDKNFSTLQTVLCATGGGAYKFEKDFRTIGNLHLHKLDELDCLVKGLLYIDSVSFNGQAECYYFANASEPERCQKMPFNLDDPYPLLVVNIGSGVSILAVHSKDNYKRVTGTSLGGGTFLGLCSLLTGCESFEEALEMASKGDSTQADKLVRDIYGGDYERFGLPGWAVASSFGNMIYKEKRESVSKEDLARATLVTITNNIGSVARMCAVNEKINRVVFVGNFLRVNTLSMKLLAYALDYWSKGQLKALFLEHEGYFGAVGALLGLPN
notes: catalytic core domain of human PanK3 (amino acid residues 12–368); made in house; host or cells: E. coli BL21(DE3)
Km [1]: 75 ± 11 µM | kcat [1]: 0.73 ± 0.02 s⁻¹ | kcat/Km [1]: 10700 ± 800 M⁻¹ s⁻¹ | Km [2]: 67 ± 10 µM | kcat [2]: 0.73 ± 0.05 s⁻¹ | kcat/Km [2]: 12000 ± 1000 M⁻¹ s⁻¹ | Km [3]: 69 ± 6 µM | kcat [3]: 0.63 ± 0.02 s⁻¹ | kcat/Km [3]: 9300 ± 500 M⁻¹ s⁻¹ | Km [4]: 42 ± 4 µM | kcat [4]: 0.399 ± 0.005 s⁻¹ | kcat/Km [4]: 10000 ± 1000 M⁻¹ s⁻¹ | Km [5]: 65 ± 7 µM | kcat [5]: 0.61 ± 0.02 s⁻¹ | kcat/Km [5]: 10200 ± 900 M⁻¹ s⁻¹ | Km [6]: 100 ± 7 µM | kcat [6]: 0.64 ± 0.01 s⁻¹ | kcat/Km [6]: 6600 ± 400 M⁻¹ s⁻¹ | Km [7]: 24 ± 4 µM | kcat [7]: 0.64 s⁻¹ | kcat/Km [7]: 30000 M⁻¹ s⁻¹
